Experimental data taken from patent US20180362582A1 (SOCPRA SCIENCES SANT ET HUMAINES S E C, published 2018).
Values belong to the binder of their own block, whether it stands above or below them. Numbered stars: 1 amine (or outer) side, 2 acyl side, 3 side chain; on linkers, the order of the positions; unused ones are H or OH. Bridge positions count the residues as written; N and C are the ends. Square brackets hold non-standard residues; d marks the D form. Ends that are not written are not given here. * marks the point of attachment. nonenoic acid = non-8-enoic acid residue (acyl cap with no amine) whose terminal alkene closes the ring by metathesis with the o-allyl-tyrosine, C=CCCCCCCC(=O)*; Tyr(3-All) = 3-allyl-tyrosine (allyl on ring carbon ortho to the phenol OH), C=CCc1cc(C[C@H](N[*:1])C(=O)[*:2])ccc1O[*:3]; OctenylA = alpha-methyl-octenylalanine = 2-(7-octenyl)alanine; 6‑(allylamino)hexanoyl = C=CCNCCCCCC(=O)*

Columns and labels:
rat NTS2-YFP receptor [1] = biological target: T1, rat NTS2-YFP receptor (rat, UniProt Q63384 1-416); test: displacement of radiolabeled neurotensin from rNTS2-YFP membranes by a single 1 µM dose
T1 construct: whole, on cells; Used as cell membranes of transfected DRG-F11 cells; also called rNTS2-YFP; rNTS2
T1 sequence (Q63384 whole entry, looked up): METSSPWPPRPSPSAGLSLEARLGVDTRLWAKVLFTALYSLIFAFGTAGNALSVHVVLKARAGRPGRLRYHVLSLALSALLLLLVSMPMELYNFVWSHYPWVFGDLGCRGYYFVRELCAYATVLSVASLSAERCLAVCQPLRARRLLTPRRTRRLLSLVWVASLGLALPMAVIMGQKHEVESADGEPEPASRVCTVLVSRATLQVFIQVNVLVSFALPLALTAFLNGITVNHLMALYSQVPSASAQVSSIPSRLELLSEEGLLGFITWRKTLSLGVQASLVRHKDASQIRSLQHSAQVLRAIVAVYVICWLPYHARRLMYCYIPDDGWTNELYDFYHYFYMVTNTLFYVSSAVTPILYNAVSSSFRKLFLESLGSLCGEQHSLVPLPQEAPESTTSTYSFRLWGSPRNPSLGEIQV
Method: (§1) DRG-F11 cells were cultured in DMEM supplemented with 10% FBS, 100 U/mL penicillin, 100 μg/mL streptomycin, and 20 mM HEPES. DRG-F11 were seeded at 2.2×10⁶ cells in a 10 cm Petri dish and transfected 24 h after plating with 10 μg of DNA coding for the rat NTS2-YFP receptor using Xtreme Gene™ HP as a transfection agent. Membrane preparation was conducted 48 h after transfection, as described below.
(§2) Transfected cells expressing the rNTS2-YFP receptor were used 48 h after transfection. Membranes were prepared by scraping cells off the culture dish with 50 mM Tris ph 7.5 and centrifuged at 15,000 g for 5 min at 4° C. The pellet was resuspended in 10 mM Tris, 1 mM EDTA pH 7.5 and sonicated for 30 s prior to be centrifugated at 15,000 g for 30 min at 4° C. The pellet was then re-suspended in binding 9 buffer. […] All other steps in binding experiments were unchanged comparing to the one using the NTS1 receptor.

rat NTS2-YFP receptor [2] = biological target: T1, rat NTS2-YFP receptor; test: competitive radioligand binding, 125I-[Tyr3]-NT, DRG-F11 membranes expressing rNTS2-YFP
Method: as §1, §2

hNTS1 receptor [3] = biological target: T2, hNTS1 receptor (human (printed as hNTS1), UniProt P30989 1-418); test: cell-based or functional assay
[4] = biological target: hNTS1-Green fluorescent protein 10(GFP10) (human (printed as hNTS1), UniProt P30989 1-418); test: cell-based or functional assay
hNTS1 receptor [5] = biological target: T2, hNTS1 receptor; test: competitive radioligand binding, 125I-[Tyr3]-NT, CHO-K1 membranes expressing hNTS1
hNTS1 receptor [6] = biological target: T2, hNTS1 receptor; test: competitive radioligand binding, 125I-[Tyr3]-NT, CHO-K1 membranes expressing hNTS1; Ki by Cheng-Prusoff
rat NTS2-YFP receptor [7] = biological target: rat NTS2-YFP receptor (rat, UniProt Q63384 1-416); test: displacement of radiolabeled neurotensin from rNTS2-YFP membranes by a single 1 µM dose
Method: as §1, §2

T2 sequence (P30989 whole entry): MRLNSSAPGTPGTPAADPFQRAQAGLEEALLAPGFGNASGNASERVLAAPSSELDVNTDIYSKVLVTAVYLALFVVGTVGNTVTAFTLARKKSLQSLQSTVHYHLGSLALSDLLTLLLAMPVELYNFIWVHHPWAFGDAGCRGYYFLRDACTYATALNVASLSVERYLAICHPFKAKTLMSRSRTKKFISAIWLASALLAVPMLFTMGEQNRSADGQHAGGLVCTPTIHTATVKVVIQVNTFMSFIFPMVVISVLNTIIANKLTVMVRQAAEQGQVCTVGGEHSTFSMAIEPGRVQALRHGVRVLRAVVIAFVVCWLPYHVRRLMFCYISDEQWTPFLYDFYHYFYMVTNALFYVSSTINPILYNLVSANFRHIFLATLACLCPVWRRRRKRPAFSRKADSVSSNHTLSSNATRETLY
Chain of hNTS1-Green fluorescent protein 10(GFP10) (P30989 whole entry): as above

% displ at 1 µM (rat NTS2-YFP receptor [1]): 96%
B1: 3 c[OctenylAKPY(All)]IL (peptide)
peptide: [OctenylA]KPXIL
modifications: staple 1-4; not fully specified (residue 4); printed as 3 c[OctenylAKPY(All)]IL
notes: Diastereoisomer of compound 12; also called compound 3

IC50 (rat NTS2-YFP receptor [2]): 47.2 nM | % displ at 1 µM (rat NTS2-YFP receptor [1]): 104%
B2: 9 c[K(butenyl)KPY(All)]IL (peptide)
peptide: XKPXIL
modifications: residue 1 is N-butenyl-lysine; Tyr is o-allyl-tyrosine; the two joined by ring-closing metathesis; 24 ring atoms
notes: also called compound 9

EC50 G13 (hNTS1 receptor [3]): 433 nM | EC50 β-arr1 [4]: 1500 nM | IC50 (hNTS1 receptor [5]): 394 nM | Ki (hNTS1 receptor [6]): 5600 nM
B3: 1-M (or 1) c[nonenoic acid KPY(All)]IL (peptide)
peptide: {nonenoic acid}-KP[Tyr(3-All)]IL
modifications: staple (positions not given here); not fully specified (bridges)
notes: Macrocycle; E and Z isomers were not separated; also called compound 1

% displ at 1 µM (rat NTS2-YFP receptor [7]): 100%
B4: NT 8-13 RRPYIL (peptide)
peptide: RRPYIL
notes: also called neurotensin (8-13)

IC50 (rat NTS2-YFP receptor [2]): 128 nM | % displ at 1 µM (rat NTS2-YFP receptor [1]): 105%
B5: 10 c[K(pentenyl)KPY(All)]IL (peptide)
peptide: XKPXIL
modifications: residue 1 is N-pentenyl-lysine; Tyr is o-allyl-tyrosine; the two joined by ring-closing metathesis; 25 ring atoms
notes: also called compound 10

EC50 β-arr1 [4]: 96 nM | IC50 (rat NTS2-YFP receptor [2]): 2300 nM | % displ at 1 µM (rat NTS2-YFP receptor [1]): 93% | Ki (hNTS1 receptor [6]): 656 nM
B6: 6 c[aminohex-6-enoic acid(All)KPY(All)]IL (peptide)
peptide: {6‑(allylamino)hexanoyl}-KP[Tyr(3-All)]IL
modifications: staple (positions not given here); not fully specified (bridges)
notes: also called compound 6
